The nature of this data set: yeast display, Sf9 membrane polyspecificity reagent, FACS + sequencing; frameworks hold sequencing errors. A digest of the protocol: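 Galactose induction of a Saccharomyces cerevisiae BJ5465 synthetic nanobody display library ran 36–48 hours. The cells were then stained for 1 hour at 4 °C with 10% biotinylated, detergent-solubilized Sf9 membrane reagent, pulled down on streptavidin microbeads and FACS-sorted into low and high (top ~1%) gates on expression and reagent-binding fluorescence. Labels for polyreactivity follow the gate of origin.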
With “QVQLVESGGGLVQAGGSLRLSCAASGSTFYRYAMGGYRPAPGKEREFVAAISGSGGSTRYADSVKGRFTISRDNAKNTVYLQMNSLKPEDTAVYYCAARSRYGYITFDYWGQGTQVTVSS”, the “polyreactivity (PSR sort gate)” value was “high polyreactivity”.
In the case of “QVQLVESGGGLVQAGGSLRLSCAASGFIIDRNAMGWSRPAPGKERELVAAITWSTTSTYYADSVKGRFTISRDNAKNTVYLQMNSLKPEDTAVYYCAADITSPAYATYDYWGQGTQVTVSS”, the “polyreactivity (PSR sort gate)” value was “low polyreactivity”.
On to “QVQLVESGVGLVQAGGSLRLSCASSGFTFYYYAMGWYRQAPGKERELVAAIDTSDGSTYYADSVKGRFTISRDNAKNTVYLQMNSLKPEDTAVYYCAAEVDWVPFLLDYWGQGTQVTVSS”, for which the “polyreactivity (PSR sort gate)” value is “low polyreactivity”.
The same measure for “QVQLVESGGGLDQAGGSLRLSCAASGLTFATYAMGWYRQAPGKERELVAAINGRGASTNYADSVKGRFTISRDNAKNTVYLKMNSLKPEDTAVYYCASRLYRRNKYVLFDYWGQGTQVTVSS”: “high polyreactivity”; for “QVQLVESGGGLVQAGGSLRLSCAASGSIFYSYAMGWYRQAPGKERELVAAITTGGSTYYADSVKGRFTISRDNAKNTVYLQMNSLKPEDTAVYYCAADFKPTVTNEPKELDYWGQGTQVTVSS”: “low polyreactivity”; for “QVQLVESGGGLVQAGGSLRLSCAASGFTFDTYAMGWSRQAPGKERELVAAISSSGGSTYYADSVKGRFTISRDNAKNTVYLQMNSLKPEDTAVYYCNAYYRYSRGYDYWGQGTQVTVSS”: “high polyreactivity”.
As for “QVQLVVSGGGLVQAGGSLRLSCAASGFTFSSNAMGWYRQAPGKECELVAAISTSGASTYYADSVKGRFTISRDNAKNTVYLQMNSLKPADSAVYYCNVPQWHRWYGYPGEDYDYWGQGTQVTVSS”, the “polyreactivity (PSR sort gate)” value is reported as “high polyreactivity”.
The same measure for “QVQLVESGGGLVQAGGSLRLSCAAAGFIFQYNGMGWYRQAPGKERELVAAITSSVNTYYADSVKGRFTISRDNAKNTVYLQMNSLKPEDTAVYYCNADDPDKSWGQGTQVTVSS”: “low polyreactivity”.
Consider “QVQLVESGGGLVQAGGSLRLSCAASGRIFRGYTMGGYRQAPGKERELVADITKRGGSTDYADSVKGRFTISRDNAKNTVYLQMNSLKPEDTEVYSCAARGPTFGVDYGYWGQGTQVTGSS”, for which the “polyreactivity (PSR sort gate)” value is listed as “high polyreactivity”.
As for “QVQLVESGGGLVQAGGSLRLSCAASGIIFAKYAMGWYRQAPGKERELVAAISRSGGSTYYADSVKGRFTISRDNAKNTVYLQMNSLKPEDTAVYYCAAAYYRDGGDFDYWGQGTQVTVSS”, the “polyreactivity (PSR sort gate)” value is “high polyreactivity”.
As to “QVQLVESGGGLVQAGGSLRLSCAASGIIFGYYAMGWYRQAPGKERELVAAINQDGSSTYYADSVKGRFTISRDNAKNTVYLQMNSLKPEDTAVYYCNARGVPRQDARMGYWGQGTQVTVSS”, the “polyreactivity (PSR sort gate)” value is “low polyreactivity”.
Consider “QVQLVESGGGLVQAGGSLRLSCAASGSIFAKYAMGWYRQAPGKDREFVAAIRASGGRTYYADSVKGRFTISRDTAKNTVYLQMNSLKPEDSAVYYCNARKYLIPKMDYWGQGTQVTVSS”, for which the “polyreactivity (PSR sort gate)” value was “high polyreactivity”.
“QVQLVESGGGLVQAGGSLRLSCSASGSIFNYYTMGWDRQAPGKERELVAVITWSDDSTYYADSVKGRFTISRDNAKNTVYLQMNSLKPEDTAVYYCNARSWGWYRIAYGYWGQGTQVTVSS”: the “polyreactivity (PSR sort gate)” value is on record as “low polyreactivity”.
Take “QVQLVESGGGLVQAGGSLRLSCAASGFTFQGNAKGCYIQAPGKERELVGAISYDGGSTYYADSVKGRFTISRDNAKNTVYLQMNSLKPEDTAVYYCAAYVGTWYYYWGQGTQVTVSS”: the “polyreactivity (PSR sort gate)” value is recorded as “high polyreactivity”.
The same measure for “QVQLVESGGGLVQAGVSLRLSCAASGFTFGRYAMGWYRQAPGKERELVAAISNSGGSTYYADSVKGRFTISRDNAKNTVYLQMNSLKPEATAVYYCAARDSYWSVYYWGQGTQVTVSS”: “high polyreactivity”; for “QDQHVESGGGLVQAGGSLRLSIAASASTIGFNAMGWYRQAPGKERELVAAITFSGGTTYYADSVKGRFTISRDNAKNTVYFQMNSLKPEDTAVYYCNADWWYQYSGPFAPWGEDYWGQGTQVTVSS”: “low polyreactivity”; for “QVQLVESGGGLVQAGGSLRLSCAASGRIFPKYAMVWYRQAPGKERELVAGITKRVGSTYYADSVKGRFTISRDNAKNTVYLQMNSLKPEDTAVYYCAADYRYLIDYLDPEKEGMDYWGQGTQVTVSS”: “low polyreactivity”.
For the sequence “QVQHVESGGGLVQAGGSLRLSCAASRFIFVTYAMGCYIQAPGKERELVAAITNSGGTTYYADSVKGRFTISRDNAKNTVYLQMNSLKPEDTAVYYCNKPYGAETAHREFDYWGQGTQVTVSS”, the “polyreactivity (PSR sort gate)” value is given as “low polyreactivity”.
For “QVQHVESGGGLVQAGGSLRLSCAASGFTFYSYAMGWYRQAPGKERELVASITSGGSTYYADSVKGRFTISRDNAKNTVYLQMNSLKPEDTAVYYCAAPAVKPRRSYYYWGQGTQVTVSS”, the “polyreactivity (PSR sort gate)” value was “high polyreactivity”.
Consider “QVQLVESGGGLVQAGGSLRLSCAASGSIFVRYAKGWYRQAPGKERELVAAIDIGGGTYYADSVKGRFTISRDNAKNTVYLQMNSLKPEDTAVYYCAADGFTEYIYLPYDYWGQGTQVTVSS”, for which the “polyreactivity (PSR sort gate)” value was “high polyreactivity”.
As for “QVQLVESGGGLVQAGGSLRLSCAASGFIFDDNTMGWYRQAPGKERELVAAISYSAGSTYYADSVKGRFTISRDNAKNTVYLQMNSLKPEDTAVYYCNKDAASWDYYGGNDYWGQGTQVTVSS”, the “polyreactivity (PSR sort gate)” value is “low polyreactivity”.
The value for “QVQLVESGGGLVQAGGSLRLSCAASGRTFDINAMGWYRQAPGKERELVAAISGRGGRTYYADSVKGRFTISRDNAKNTVYLQMNSLKPEDSAVYYCAARAQWSSLEYWGQGTQVTVSS” was “high polyreactivity”; that for “QVQLVESGGGLVQAGGSLRLSFAASGLTFYTNAMGWYRQAPGKETELVATITSGGRTSYADSVKGRFTISRDNAKNTVYLEMNRLKPEDTAVYYCADTTGWYGARYGYWGQGTQVTVSS” was “high polyreactivity”.
Take “QVQLVESGGGFVQAGGSLRLSCAASGFTFRKYARGWYRQAPGNERELVAVINIVGSTYYADSVKGRFTISRDNAKNTVYLQMNSLKPEDTAVYYCAADWSYRLKYYWYGGFNYWGQGTQVTVSS”: the “polyreactivity (PSR sort gate)” value was “high polyreactivity”.
For the sequence “QVQLVESGGGLVQAGGSLRLSCAASGLTFAYYDMGWYIQAPGKEREMVAAITSGGTTNYADSVKGSFTISRDNANNTVYFQMNSLKPEDTAVYYCNADYYSRIVGVRIYEYWGQGTQVTVSS”, the “polyreactivity (PSR sort gate)” value is “low polyreactivity”.
Turning to “QVQLVESGGGLVQAGGSLRLSCAASGFILRGYAMGWYIQAPGKERELVDVITGRGDRTYYADSVKGRFTISRDNAKNTVYLQMNSLKPEETAVYYCAARAQPGGSSAIKMYYWGQGTQVTVSS”, the “polyreactivity (PSR sort gate)” value is given as “high polyreactivity”.
Consider “QVHLVETGGGLDQAGGSLRLSCAASGYTFKTNDMRAYSPPPGKDREFVAAISAIGASTYYADSVKGRFTISRDTAKNTVYLQMKSLKPEDTAVYYCATGPYPLWYVWTDGYDHWGQGTQVPVSS”, for which the “polyreactivity (PSR sort gate)” value is “low polyreactivity”.
As for “QVQLVESGGGLVQAGGSLRLICAPSGSTNRYYAIGWSRQAPRKEMELVAPISWRGGSTYYADSVKGRFRISRDNANNTVYLEMNSLKPEDTAVYYCNAAYSYAVRDPIDYGYWGQGTQVTVSS”, the “polyreactivity (PSR sort gate)” value is listed as “high polyreactivity”.
The value for “QVQLVESGGGLVQAGGSLRLSCAASGITFRYYAMGWYRQAPGKERELVAAISGSGGSTYYADSVKGRFTISRDNAKNTVYLQMNSLKPEDTAVNYCNVDKGYSRSLRLGYDYWGQGTEVTVSS” was “high polyreactivity”; that for “QVQLVESGGGLVQAGGSLRLSCAASGSTFIYYAMGWYRQAPGKERELVAAISGSGASTYYADSVKGRFTISRDNAKNTVYLQMNSLKPEDTAVYYCAARSYGITDYGMYSWGQGTQVTVSS” was “high polyreactivity”.
The value for “QVQLVESGGGLVQAGGSLRLSCAASGRTFRFNAMGWYRQAPGKESELVAAISSSGRTYYADSVKGRFTISRDNAKNTVYLQMNSLKPEDTAVYYCNKDPYLKLKMDYWGQGTQVTGSS” was “high polyreactivity”; that for “QVQLVESGGGLVQAGGSLRLSCAASGIIFDSNAMGWYRQAPGKERELVAAITRTATRTYYADSVKGRFTISRDQAQNTVYLQMNSLKPEDTAFYYCADRGSTPQPGVGYWGQGTQVTVSS” was “high polyreactivity”.
Consider “QVQLVESGGGLVQAGGSLRLSCAASGFIFKWNAMGWYRQAPGKERELVAAITSGGGTYYADSVKGRFTISRDNAKNTVYLQMNSLKPEDTAVYYCAALGRYWPARRFDYWGQGTQVTVSS”, for which the “polyreactivity (PSR sort gate)” value was “high polyreactivity”.
The value for “QVQLVESGGGLVQAGGSLRLSCAASGFIIPDYAMGWYRQAPVKERELVAAITSSGGRTYYADSVKVRFTISRDNAKNTVYLQMNSLIPEDTAVYYCAARTNSPRGYGSDYWGQGTQVTVSS” was “high polyreactivity”; that for “QVQLVESGGGIVQAGGSLRLSCAASGRTLQRNAMGWYRQAPGKERELVAAISWSGASTYYADSVKGRFTISRDNAKNTVYLQMNSLKPEDTAVYYCAATYIDRGNIYDYWGQGTQVTVSS” was “high polyreactivity”; that for “QVQLVESGGGLVQAGGSLRLSCAASGSTFPSNAMGWYRQAPGKERELVAALSRGGTTNYADSVKGRFTISRDNAKNTVYLQMNCLKPEDTAVYYCAKVYKLYWYKAYRRDYWGQGTQVTVSS” was “high polyreactivity”.
Turning to “QVQLVESGGGLVQAGGSLRLSSAASGSIFSSYAMGWYRQAPGKERELVAAITKRADRTNYADSVKGRFTISRDNAKNTVYLQMNSLKPEDTAVYYCNAEGQNDHPSNGYISYKYDYWGQGTQVTVSS”, the “polyreactivity (PSR sort gate)” value is reported as “low polyreactivity”.
The value for “QVQLVESGGGLVQAGGSLRLSFAASGIIFRYSAMGWYRQEPGKERELVAAISRSGARTYYADSVKGRFTISRDNAKNTVYLQMNSLKPEDTAVYYCATDPTSGRFYYWGQGTQVTVSS” was “high polyreactivity”; that for “QVQLVESGGGLVQAGGSLRLSCAASGRIFTLYDMGWYIQAPGKERELVAAISNSAGSTYYADSVKGRFTISRDNAKNTVYLQMNSLKPEDTAVYYCAAELWSWWGSRDYWGQGTQVTVSS” was “high polyreactivity”.
Take “QVQLVESVRGLVQAGGSLRLSCAASGSIFDYNAMGWYREAPGKEREFVASITYSGGSTNYADSVKGRFTISRDNAKNTVYLQMNSLKPEDTAVYYCSKTIGIVWIYYPGARYDYWGQGTQVTVSS”: the “polyreactivity (PSR sort gate)” value is recorded as “low polyreactivity”.

Source of the values: the nanobody polyreactivity screen of Harvey et al. (2022).
